Source: US20120225060A1 (APEXIGEN, published 2012)
Read-outs that look alike come from different tables or passages of the source.

Legend:
[1] = biological target: T1, recombinant human IL-6R-extracellular domain (ECD) (human, UniProt P08887 20-365); assay: direct ELISA on IL-6R
T1 construct: extracellular domain; also called IL-6R-ECD
T1 sequence (looked up): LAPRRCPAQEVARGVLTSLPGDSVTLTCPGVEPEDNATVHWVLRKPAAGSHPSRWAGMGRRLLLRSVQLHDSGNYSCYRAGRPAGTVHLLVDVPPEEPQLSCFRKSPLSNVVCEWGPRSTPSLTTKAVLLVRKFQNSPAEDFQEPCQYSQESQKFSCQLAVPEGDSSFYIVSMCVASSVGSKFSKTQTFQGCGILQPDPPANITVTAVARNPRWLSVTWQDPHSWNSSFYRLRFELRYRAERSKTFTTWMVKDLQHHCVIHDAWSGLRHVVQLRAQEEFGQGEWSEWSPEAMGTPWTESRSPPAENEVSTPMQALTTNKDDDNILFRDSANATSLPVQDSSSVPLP

[2] = biological target: T2, IL-6R on human myeloma U266B1 cells (human, UniProt P08887 20-468); assay: cell-based or functional assay
T2 sequence (looked up): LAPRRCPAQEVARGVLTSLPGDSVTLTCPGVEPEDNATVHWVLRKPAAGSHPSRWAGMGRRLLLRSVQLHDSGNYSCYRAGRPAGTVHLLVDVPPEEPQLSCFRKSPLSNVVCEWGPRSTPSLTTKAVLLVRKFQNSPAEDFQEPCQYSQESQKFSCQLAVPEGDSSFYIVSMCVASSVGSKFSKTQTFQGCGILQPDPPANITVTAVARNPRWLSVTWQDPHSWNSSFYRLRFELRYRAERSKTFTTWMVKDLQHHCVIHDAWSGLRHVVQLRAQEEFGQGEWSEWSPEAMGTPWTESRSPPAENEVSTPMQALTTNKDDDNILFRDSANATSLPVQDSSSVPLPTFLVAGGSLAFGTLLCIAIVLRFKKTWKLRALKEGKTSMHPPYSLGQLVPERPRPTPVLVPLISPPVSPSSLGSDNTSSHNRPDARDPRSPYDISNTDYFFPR

[3] = biological target: T2, IL-6R on human myeloma U266B1 cells; assay: FACS binding to IL-6R on U266B1 cells
[4] = biological target: T1, recombinant human IL-6R-extracellular …; assay: receptor-ligand ELISA, blocking of IL-6 binding to IL-6R
[5] = biological target: T1, recombinant human IL-6R-extracellular …; assay: SPR
[6] = biological target: T1, recombinant human IL-6R-extracellular …; assay: direct ELISA on IL-6R; remark: listed apart in the source
[7] = biological target: T2, IL-6R on human myeloma U266B1 cells; assay: cell-based or functional assay; remark: listed apart in the source
[8] = biological target: T2, IL-6R on human myeloma U266B1 cells; assay: FACS binding to IL-6R on U266B1 cells; remark: listed apart in the source
[9] = biological target: T1, recombinant human IL-6R-extracellular …; assay: receptor-ligand ELISA, reference Tocilizumab
[10] = biological target: T1, recombinant human IL-6R-extracellular …; assay: receptor-ligand ELISA, blocking of IL-6 binding to IL-6R; remark: listed apart in the source
[11] = biological target: T1, recombinant human IL-6R-extracellular …; assay: receptor-ligand ELISA: blocking of IL-6 binding to IL-6R
[12] = biological target: T2, IL-6R on human myeloma U266B1 cells; assay: cell-based or functional assay; remark: listed apart in the source
IL-6R on TF-1 cells = IL-6R on TF-1 cells (Homo sapiens); assay: cell-based or functional assay
[13] = biological target: T2, IL-6R on human myeloma U266B1 cells; assay: FACS on U266B1 cells

B1: clone 40 rabbit anti-IL-6R antibody (antibody, V domains shown)
VH: QSLEESGGRLVSPGGSLTLTCTVSGVDLNTYAMGWVRQAPGKGLECIGVILGSGTTYYANWAKGRFTISKTSSTTVDLKMTNLTAADTATYFCAGDRYGSLEEVITPYFDLWGPGILVTVSS
VL: DVVMTQTPASVEAAVGGTVTIKCQASQNIYNNLAWYQQKPAQPPKLLIYSASTLESGVPSRFKGSGSGTGYTLTISDLECADAATYYCQSAYYTSYIDHNVFGGGTEVVVE
EC50 [1]: 0.02 µg/mL
TF-1 proliferation IC50 [2]: 0.02 µg/mL
EC50 [3]: 0.0573 µg/mL
IC50 [4]: 1.36 µg/mL

B2: humanized clone #36 anti-IL-6R antibody (antibody, human IgG1, kappa, V domains shown)
VH: EVQLVESGGGLVQPGGSLRLSCAVSGFSLSSYYMSWVRQAPGKGLEWIGITTTSTNTFYASWAKGRFTISKDSSKNTVYLQMNSPRAEDTAVYFCARYGGNSAYYAFSLWGQGTLVTVSS
VL: DIQMTQSPSSLSASVGDRVTISCQSSQSVYNNNYLAWFQQKPGKPPKLLIYGASNLASGVPSRFSGSGSGTQFTLTISSLQPEDVATYYCQGYYNGVIFVFGGGTKVEIKR
notes: Humanized VH cloned into human IgG1 CH vector, humanized VK into human CK vector; also called Humanized 36; humanized 36
Kd [5]: 0.526 nM
koff [5]: 0.00031 s⁻¹
kon [5]: 589000 M⁻¹ s⁻¹
EC50 [6]: 0.0216 µg/mL
TF-1 proliferation IC50 [7]: 0.181 µg/mL
EC50 [8]: 0.145 µg/mL
fold potency against Tocilizumab in ligand-receptor binding assays [9]: 6 fold
IC50 [10]: 0.39 µg/mL
IC50 (read off the curve) [11]: ~0.2 µg/mL

B3: clone 21 rabbit anti-IL-6R antibody (antibody, V domains shown)
VH: QSVEESGGRLVTPGTPLTLTCTVSGIDLSNYYMSWVRQAPGKGLEWIGISSTTSNTFYASWAKGRFTISKTSATVDLKITSPTTEDTATYFCARYGGNSAYYAFSLWGQGTLVTVSS
VL: AVVLTQTPSPVSAAVGGTVTINCQSSQSVYNNNYLAWYQQKPGQPPKLLIYGASNLASGVPSRFKGSGSGTQFTLTISEVQCDDAATYYCQGYYNGVIFVFGGGTEVVVK
EC50 [1]: 0.04 µg/mL
TF-1 proliferation IC50 [2]: 0.11 µg/mL
EC50 [3]: 0.0326 µg/mL
IC50 [4]: 0.47 µg/mL

B4: clone 36 rabbit anti-IL-6R antibody (antibody, V domains shown)
VH: QSVEESGGRLVTPGTPLTLTCTVSGFSLSSYYMSWVRQAPGKGLEWIGITTTSTNTFYASWAKGRFTISKTSATVDLKITSPTIEDTATYFCARYGGNSAYYAFSLWGQGTLVTVSS
VL: QVLTQTASSVSAAVGGTVTISCQSSQSVYNNNYLAWFQQKPGQPPKLLIYGASNLASGVPSRFKGSGSGTQFTLTISDLECDNAATYYCQGYYNGVIFVFGGGTEVVVK
Kd [5]: 0.635 nM
koff [5]: 0.000342 s⁻¹
kon [5]: 538000 M⁻¹ s⁻¹
inhibition of STAT3 phosphorylation, fold as compared to tocilizumab (hPM-1) [12]: > 10 fold
EC50 [1]: 0.02 µg/mL
EC50 [6]: 0.0595 µg/mL
TF-1 proliferation IC50 [2]: 0.04 µg/mL
TF-1 proliferation IC50 [7]: 0.163 µg/mL
IC50 (read off the curve), IL-6 mediated TF-1 proliferation (IL-6R on TF-1 cells): ~0.1 µg/mL
EC50 [3]: 0.0203 µg/mL
EC50 [8]: 0.0776 µg/mL
IC50 [4]: 0.23 µg/mL
IC50 [10]: 0.235 µg/mL
IC50 (read off the curve) [11]: ~0.2 µg/mL

B5: clone 42 rabbit anti-IL-6R antibody (antibody, V domains shown)
VH: QSVEESGGRLVTPGTPLTLTCTVSGFSLSNYWMSWVRQAPGKGLEWIAFIGGGNTFYASWAKGRFTISKTSSTTVDLSMPSPTTEDTATYFCARGYGAPGYDLWGQGTLVTVSL
VL: AIVMTQTPSSKSVPVGDTVTINCQASESVYTNNRLSWYQQKPGQPPKLLIYYASTLASGVPSRFKGSGSGTQFTLTISDVVCDNAATYYCVGYKSSDGDGTAFGGGTEVVVK
EC50 [1]: 0.04 µg/mL
TF-1 proliferation IC50 [2]: 0.03 µg/mL
EC50 [3]: 0.0961 µg/mL
IC50 [4]: 0.34 µg/mL

B6: humanized clone #51 anti-IL-6R antibody (antibody, human IgG1, kappa, V domains shown)
VH: EVQLVESGGGLVQPGGSLRLSCAASGFDISSYSLQWVRQSPGKGLEYIGFIRPDGSAHYATWAKGRFTISKDSSKNTVYLQMNSLRAEDTAVYFCARDDISSDYFPNLWGPGTLVTVSS
VL: DIQMTQSPSTLSASVGDRVTISCQASESVYNKNNLAWYQQKPGKPPKLLIYDASDLASGVPSRFSGSGSGTQFTLTISSLQPDDFATYYCAGGGSGNVYDFGGGTKVEIKR
notes: Humanized VH cloned into human IgG1 CH vector, humanized VK into human CK vector; also called Humanized 51; humanized 51
Kd [5]: 1.29 nM
koff [5]: 0.0004 s⁻¹
kon [5]: 311000 M⁻¹ s⁻¹
EC50 [6]: 0.0169 µg/mL
TF-1 proliferation IC50 [7]: 1.06 µg/mL
EC50 [8]: 0.356 µg/mL
IC50 [10]: 0.26 µg/mL

B7: clone 5 rabbit anti-IL-6R antibody (antibody, V domains shown)
VH: QSLEESGGRLVTPGTPLTLTCTVSGIDLSRYWMSWVRQAPGKGLEWIGMISGGNTWYASWAKGRFTISKTSTTVDLKITSPTTEDTATYFCARGIDTGIATTFNLWGPGTLVTVSS
VL: AQVLTQTPSSVSAAVGGTVTISCQSSQSVYNNNRLSWFQQKPGQPPKLLIYYASTLASGVPSRFKGSGSGTQFTLTISDLECDDAATYYCQGYYSGVINVFGGGTEVVVK
Kd [5]: 0.523 nM
koff [5]: 0.000279 s⁻¹
kon [5]: 533000 M⁻¹ s⁻¹
EC50 [1]: 0.04 µg/mL
TF-1 proliferation IC50 [2]: 0.03 µg/mL
EC50 [3]: 0.0261 µg/mL
IC50 [4]: 0.38 µg/mL

B8: clone 23 rabbit anti-IL-6R antibody (antibody, V domains shown)
VH: QSLEESGGRLVTPGTPLTLTCTVSGIDLSRYWMSWVRQAPGKGLEWIGMISGGNTWYASWAKGRFTISKTSTTVDLKITSPTTEDTATYFCARGIDTGIATTFNLWGPGTLVTVSS
VL: AQVLTQTPSSVSTAVGGTVTISCQSSQNVYNNNRLSWFQQKPGQPPKLLIYYTSTLPSGVPSRFKGSGSGTQFTLTISDLECDDAATYYCQGYYSGVINVFGGGTEVVVK
EC50 [1]: 0.07 µg/mL
TF-1 proliferation IC50 [2]: 0.07 µg/mL
EC50 [3]: 0.0263 µg/mL
IC50 [4]: 0.38 µg/mL

B9: clone 37 rabbit anti-IL-6R antibody (antibody, V domains shown)
VH: QSLEESGGRLVTPGTPLTLTCTVSGIDLSRYWMSWVRQAPGKGLEWIGMISGGNTWYASWAKGRFTISGTSTTVDLKIISPTTADTATYFCARGIDTGIATTFNLWGPGTLVTVSS
VL: AQVLTQTPSSVSAAVGGTVTISCQSSQSVYSNNRLSWFQQKPGQPPKLLIYYTSTLASGVPSRFKGSGSGTQFTLTISDLECDDAATYYCQGYYSGVINVFGGGTEVVVK
EC50 [1]: 0.05 µg/mL
TF-1 proliferation IC50 [2]: 0.09 µg/mL
EC50 [3]: 0.0331 µg/mL
IC50 [4]: 0.39 µg/mL

B10: clone 51 rabbit anti-IL-6R antibody (antibody, V domains shown)
VH: QSVEESGGRLVTPGTPLTLTCTASGFDISSYSLQWVRQSPGKGLEYIGFIRPDGSAHYATWAKGRFTISKTSSTTVDLKMTSLTTEDTATYFCARDDISSDYFPNLWGPGTLVTVSS
VL: QVLTQTPSPVSAAVGGTVTISCQASESVYNKNNLAWYQQKPGQPPKLLIYDASDLASGVSSRFKGSGSGTQFTLTISDLECADAATYYCAGGGSGNVYDFGGGTEVVVK
Kd [5]: 1.17 nM
koff [5]: 0.000463 s⁻¹
kon [5]: 393000 M⁻¹ s⁻¹
EC50 [1]: 0.03 µg/mL
EC50 [6]: ~0.03 µg/mL
TF-1 proliferation IC50 [2]: 0.02 µg/mL
TF-1 proliferation IC50 [7]: 0.154 µg/mL
EC50 (read off the curve) [13]: ~0.2 µg/mL
EC50 [3]: 0.0687 µg/mL
EC50 [8]: 0.164 µg/mL
IC50 [4]: 0.8 µg/mL
IC50 [10]: 0.288 µg/mL
IC50 (read off the curve) [11]: ~0.3 µg/mL
